The source of these data is patent publication WO2019030706A1 (dated 2019).

For one assay, the target named is mature human thrombin (human, UniProt P00734 314-363; P00734 364-622). Put plainly: estimate from the rate of S2238 hydrolysis by thrombin.
Assay [1] deals with T1, prothrombin (human, UniProt P00734 44-622). Put plainly: pull-down with IgA binding lectin-agarose, supernatant on SDS-PAGE.
Assay [2] deals with T1, prothrombin. Put plainly: ForteBio Octet, immobilized IgG. For orientation: Biolayer interferometry detects binding as a change in optical thickness at a sensor tip.

B1: wild-type anti-exosite 1 IgA antibody (antibody, V domains shown)
VH: QVQLIQSGSAVKKPGASVRVSCKVSGYTLTEAAIHWVRQAPGKGLEWMGGLDPQDGETVYAQQFKGRVTMTEDRSTDTAYMEVNNLRSEDTATYYCTTGDFSEFEPFSMDYFHFWGQGTVVTVAS
VL: EIVLTQSPATLSLSPGERATLSCRASQNVSSFLAWYQHKPGQAPRLLIYDASSRATDIPIRFSGSGSGTDFTLTISGLEPEDFAVYYCQQRRSWPPLTFGGGTKVEIKR
notes: also called anti-thrombin IgA; anti-IIa IgA
What is called Kd is the constant that tells how readily two partners part at equilibrium. For B1, the Kd with mature human thrombin was ~12 nM. In addition, the binding result in the assay with prothrombin [1] was “no binding”.

B2: synthetic anti-exosite 1 IgG antibody (antibody, V domains shown)
VH: B1 VH
VL: B1 VL
notes: also called synthetic IgG; anti-exosite IgG antibody
As for B2, the binding result in the assay with prothrombin [2] is given as “no binding (tested: 500nM)”.
